Results as given in patent US20260265358A1 (BYOMASS, published 2026).
Positions count from the first letter of the chain named. Where “and” joins values, the source holds several entries; their conditions need not be identical. Equal values may be shown once.

B1: anti-Activin A antibody Clone A (IgG) (antibody, V domains shown)
VH: QVQLVQSGAEVKKPGASVKVSCKASGYTFTGYYMHWVRQAPGQGLEWMGSINPSSGGTNYAQKFQGRVTMTTDTSTSTAYMELRSLRSDDTAVYYCARARDIAAAGLGAFDYWGQGTLVTVSS
VL: EIVLTQSPGTLSLSPGERATLSCRASQSVRSSYLAWYQQKPGQAPRLLIYGASSRATGIPDRFSGSGSGTDFTLTISRLEPEDFAVYYCQQYVSYPRTFGGGTKVEIKR
notes: IgG format; also called Antibody A
B2: anti-Activin A antibody Clone I (IgG) (antibody, V domains shown)
VH: QVQLVQSGAEVKKPGSSVKVSCKASGGTFSNYAISWVRQAPGQGLEWMGYIIPFFGTANYAQKFQGRVTITADESTSTAYMELSSLRSEDTAVYYCARGGSGYSTSWGSSLYWGQGTLVTVSS
VL: B1 VL with R30S, S54Y, Q90L, Y92S, V93G, S94V, Y95F, R97Y
notes: IgG format; also called Antibody I
B3: anti-Activin A antibody Clone E (IgG) (antibody, V domains shown)
VH: B1 VH with T30H, Y33N, S54Y, G57Y, N59I, T72R, T76I, R84S, S85R
VL: B1 VL
notes: IgG format; also called Antibody E
B4: anti-Activin A antibody Clone G (IgG) (antibody, V domains shown)
VH: B1 VH with G31S, M34I, S50A, N52Y, P53A, S54Y, G57D, F64L
VL: B1 VL with V93S, S94N
notes: IgG format; also called Antibody G
B5: anti-Activin A antibody Clone H (IgG) (antibody, V domains shown)
VH: B1 VH with Y33H, M34I, S50H, N52S, P53A, S54Y, G57T, F64L
VL: B1 VL with V93S, S94N
notes: IgG format; also called Antibody H
B6: anti-Activin A antibody Clone K (IgG) (antibody, V domains shown)
VH: QVQLVQSGAEVKKPGSSVKVSCKASGGTSSSYAISWVRQAPGQGLEWMGYIIPAFGTANYAQKFQGRVTITADESTSTAYMELSSLRSEDTAVYYCARPVRTYPLGKYFYHWGQGTLVTVSS
VL: EIVLTQSPATLSLSPGERATLSCRASQSVSSYLAWYQQKPGQAPRLLIYDASNRATGIPARFSGSGSGTDFTLTISSLEPEDFAVYYCQQDSIFPPYTFGGGTKVEIKR
notes: IgG format; also called Antibody K
B7: anti-Activin A antibody Clone Q (IgG) (antibody, V domains shown)
VH: QVQLVQSGAEVKKPGSSVKVSCKASGGSFSPYTWSWVRQAPGQGLEWMGGIIPISGTANTAQKFQGRVTITADESTSTAYMELSSLRSEDTAVYYCARGGPLSGWRASYYYWGQGTLVTVSS
VL: not shown
notes: IgG format; also called Antibody Q
B8: anti-Activin A antibody Clone L (IgG) (antibody, V domains shown)
VH: QVQLQESGPGLVKPSETLSLTCAVSGYSISSGYYWGWIRQPPGKGLEWIGSIYHSGSTYYNPSLKSRVTISVDTSKNQFSLKLSSVTAADTAVYYCAREAGSGYWYLSVYGMDVWGQGTTVTVSS
VL: EIVLTQSPATLSVSPGERATLSCRASQSVSSNLAWYQQKPGQAPRLLIYGASTRATGIPARFSGSGSGTEFTLTISSLQSEDFAVYYCQQSDDWPWTFGGGTKVEIKR
notes: IgG format; also called Antibody L

target: T1, Human Activin A Fc (human, UniProt P03970 309-424 (pig entry)); assay: Octet BLI, IgG, avid
T1 construct: also called human Activin A-Fc fusion; human Activin A-Fc antigen; not shown: Fc part
T1 sequence: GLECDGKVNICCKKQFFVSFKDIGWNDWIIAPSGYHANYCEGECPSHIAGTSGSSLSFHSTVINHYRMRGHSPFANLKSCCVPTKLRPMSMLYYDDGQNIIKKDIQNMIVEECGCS
Method: ForteBio affinity measurements were performed on an Octet HTX generally as previously described (see, e.g., Estep et al, Mabs 5(2), 270-278 (2013)). Briefly, ForteBio affinity measurements were performed by loading IgGs on-line onto AHC sensors. Sensors were equilibrated off-line in assay buffer for 30 min and then monitored on-line for 60 seconds for baseline establishment. Sensors with loaded IgGs were exposed to 100 nM antigen for 3 minutes, and afterwards were transferred to assay buffer for 3 min for off-rate measurement. All kinetics were analyzed using the 1:1 binding model.
Binding affinity and epitope binning assays were performed with a ForteBio instrument as described herein.

| Kd [pM] | Binder |
| --- | --- |
| 810 | B1 |
| 536 | B2 |
| 551 | B3 |
| 680 | B4 |
| 666 | B5 |
| 430 | B6 |
| 585 | B7 |
| 1570 | B8 |

target: T2, Activin B (UniProt P09529 293-407); assay: Octet BLI, IgG, avid
T2 sequence (looked up): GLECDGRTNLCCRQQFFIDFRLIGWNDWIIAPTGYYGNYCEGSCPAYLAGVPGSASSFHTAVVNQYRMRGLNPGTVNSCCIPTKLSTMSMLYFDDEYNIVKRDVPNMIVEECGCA

| binding result | Kd [pM] | Binder |
| --- | --- | --- |
| no binding (tested: 100 nM antigen) | – | B1 |
| no binding (tested: 100 nM antigen) | – | B2 |
| no binding (tested: 100 nM antigen) | – | B4 |
| no binding (tested: 100 nM antigen) | – | B6 |
| no binding (tested: 100 nM antigen) | – | B7 |
| – | 241000 | B8 |

target: T3, BMP9 (UniProt Q9UK05 320-429); assay: Octet BLI, IgG, avid
T3 sequence (looked up): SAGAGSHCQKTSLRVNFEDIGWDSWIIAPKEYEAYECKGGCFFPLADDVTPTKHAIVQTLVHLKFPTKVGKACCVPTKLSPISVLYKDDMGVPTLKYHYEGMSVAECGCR

| binding result | Binder |
| --- | --- |
| no binding (tested: 100 nM antigen) | B1 |
| no binding (tested: 100 nM antigen) | B2 |
| no binding (tested: 100 nM antigen) | B3 |
| no binding (tested: 100 nM antigen) | B4 |
| no binding (tested: 100 nM antigen) | B5 |
| no binding (tested: 100 nM antigen) | B6 |
| no binding (tested: 100 nM antigen) | B7 |
| no binding (tested: 100 nM antigen) | B8 |

target: T4, BMP10 (UniProt O95393 317-424); assay: Octet BLI, IgG, avid
T4 sequence (looked up): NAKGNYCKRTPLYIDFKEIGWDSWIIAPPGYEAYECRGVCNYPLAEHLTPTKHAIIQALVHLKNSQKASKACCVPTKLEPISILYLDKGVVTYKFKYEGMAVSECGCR

| binding result | Binder |
| --- | --- |
| no binding (tested: 100 nM antigen) | B1 |
| no binding (tested: 100 nM antigen) | B2 |
| no binding (tested: 100 nM antigen) | B3 |
| no binding (tested: 100 nM antigen) | B4 |
| no binding (tested: 100 nM antigen) | B5 |
| no binding (tested: 100 nM antigen) | B6 |
| no binding (tested: 100 nM antigen) | B7 |
| no binding (tested: 100 nM antigen) | B8 |

target: T5, GDF15 Fc (UniProt Q99988 197-308, limits assumed); assay: Octet BLI, IgG, avid
T5 construct: not shown: Fc part
T5 sequence (looked up): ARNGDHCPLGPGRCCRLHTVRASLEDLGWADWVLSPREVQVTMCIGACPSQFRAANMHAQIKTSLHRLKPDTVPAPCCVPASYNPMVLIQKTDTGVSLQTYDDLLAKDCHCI

| binding result | Binder |
| --- | --- |
| no binding (tested: 100 nM antigen) | B1 |
| no binding (tested: 100 nM antigen) | B2 |
| no binding (tested: 100 nM antigen) | B3 |
| no binding (tested: 100 nM antigen) | B4 |
| no binding (tested: 100 nM antigen) | B5 |
| no binding (tested: 100 nM antigen) | B6 |
| no binding (tested: 100 nM antigen) | B7 |
| no binding (tested: 100 nM antigen) | B8 |

target: T6, Human GDNF (human, UniProt P39905 78-211); assay: Octet BLI, IgG, avid
T6 sequence (looked up): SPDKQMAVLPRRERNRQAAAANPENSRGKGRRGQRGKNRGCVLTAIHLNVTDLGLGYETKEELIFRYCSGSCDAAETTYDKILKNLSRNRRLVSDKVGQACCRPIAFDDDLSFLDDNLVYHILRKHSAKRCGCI

| binding result | Binder |
| --- | --- |
| no binding (tested: 100 nM antigen) | B1 |
| no binding (tested: 100 nM antigen) | B2 |
| no binding (tested: 100 nM antigen) | B3 |
| no binding (tested: 100 nM antigen) | B4 |
| no binding (tested: 100 nM antigen) | B5 |
| no binding (tested: 100 nM antigen) | B6 |
| no binding (tested: 100 nM antigen) | B7 |
| no binding (tested: 100 nM antigen) | B8 |

target: Human GDF8 (human, UniProt O14793 267-375); assay: Octet BLI, IgG, avid

| binding result | Binder |
| --- | --- |
| no binding (tested: 100 nM antigen) | B1 |
| no binding (tested: 100 nM antigen) | B2 |
| no binding (tested: 100 nM antigen) | B3 |
| no binding (tested: 100 nM antigen) | B4 |
| no binding (tested: 100 nM antigen) | B5 |
| no binding (tested: 100 nM antigen) | B6 |
| no binding (tested: 100 nM antigen) | B7 |
| no binding (tested: 100 nM antigen) | B8 |

target: T7, Human GDF10 (human, UniProt P55107 369-478); assay: Octet BLI, IgG, avid
T7 sequence (looked up): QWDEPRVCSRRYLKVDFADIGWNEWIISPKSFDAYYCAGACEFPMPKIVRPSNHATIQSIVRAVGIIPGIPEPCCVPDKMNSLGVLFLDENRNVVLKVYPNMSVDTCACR

| binding result | Binder |
| --- | --- |
| no binding (tested: 100 nM antigen) | B1 |
| no binding (tested: 100 nM antigen) | B2 |
| no binding (tested: 100 nM antigen) | B3 |
| no binding (tested: 100 nM antigen) | B4 |
| no binding (tested: 100 nM antigen) | B5 |
| no binding (tested: 100 nM antigen) | B6 |
| no binding (tested: 100 nM antigen) | B7 |
| no binding (tested: 100 nM antigen) | B8 |

target: Human GDF11 (human, UniProt O95390 299-407); assay: Octet BLI, IgG, avid
Sequence (O95390 299-407 limits assumed): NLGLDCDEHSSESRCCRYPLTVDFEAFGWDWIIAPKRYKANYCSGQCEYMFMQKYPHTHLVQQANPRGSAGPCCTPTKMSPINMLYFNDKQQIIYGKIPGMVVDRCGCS

| binding result | Kd [pM] | Binder |
| --- | --- | --- |
| no binding (tested: 100 nM antigen) | – | B1 |
| no binding (tested: 100 nM antigen) | – | B2 |
| – | 27300 | B3 |
| no binding (tested: 100 nM antigen) | – | B4 |
| no binding (tested: 100 nM antigen) | – | B5 |
| no binding (tested: 100 nM antigen) | – | B6 |
| no binding (tested: 100 nM antigen) | – | B7 |
| no binding (tested: 100 nM antigen) | – | B8 |

target: T8, Activin A (ligand of the Activin 2B Receptor/SMAD reporter assay) (UniProt P08476 311-426); assay: cell-based or functional assay
T8 sequence (looked up): T1 sequence

| Activin A-ActRIIB SMAD IC50 pM | Binder |
| --- | --- |
| 324 pM and 282 pM and 361 pM | B1 |
| 1.09 pM | B2 |
| 16.5 pM | B3 |
| 15.8 pM | B4 |
| 36.9 pM | B5 |
| 200 pM | B8 |

target: T2, Activin B; assay: cell-based or functional assay

| Activin B-ActRIIB SMAD IC50 pM [pM] | Binder |
| --- | --- |
| > 100000 | B1 |
| 52400 | B2 |
| 83600 | B3 |
| > 100000 | B4 |
| > 100000 | B5 |
| 30700 | B6 |
| > 100000 | B8 |

target: T1, Human Activin A Fc; assay: KD with 5% HSA, method not stated

| Kd [pM] | Binder |
| --- | --- |
| 189 | B7 |

target: T1, Human Activin A Fc; assay: KD with 0.1% BSA, method not stated

| Kd [pM] | Binder |
| --- | --- |
| 128 | B7 |

target: T1, Human Activin A Fc; assay: KD with 0.1% HSA, method not stated

| Kd [pM] | Binder |
| --- | --- |
| 156 | B7 |
